Measured values published in patent US20100189719A1 (published 2010).

T1: murine VEGF-D (mVEGF-D) (mouse, UniProt P97946 98-206, limits assumed)
T1 sequence (looked up): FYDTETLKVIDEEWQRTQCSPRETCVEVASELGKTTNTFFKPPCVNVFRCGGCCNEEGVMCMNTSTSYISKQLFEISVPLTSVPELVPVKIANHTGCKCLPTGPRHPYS

T2: human placenta growth factor (PlGF-2) (human, UniProt P49763-3 19-170, limits assumed)
T2 construct: also called human PlGF-2
T2 sequence (looked up): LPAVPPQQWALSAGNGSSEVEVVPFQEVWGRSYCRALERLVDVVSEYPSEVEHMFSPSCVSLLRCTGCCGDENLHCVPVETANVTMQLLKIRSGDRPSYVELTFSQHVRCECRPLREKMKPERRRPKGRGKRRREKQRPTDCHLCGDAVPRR

T3: mouse placenta growth factor (PlGF-2) (mouse, UniProt P49764 19-158, limits assumed)
T3 construct: also called murine PlGF-2
T3 sequence (looked up): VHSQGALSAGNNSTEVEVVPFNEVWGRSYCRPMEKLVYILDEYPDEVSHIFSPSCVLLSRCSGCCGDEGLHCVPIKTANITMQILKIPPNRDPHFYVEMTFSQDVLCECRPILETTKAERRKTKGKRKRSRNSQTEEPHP

T4: human VEGF-B (human, UniProt P49765-2 22-188, limits assumed)
T4 sequence (looked up): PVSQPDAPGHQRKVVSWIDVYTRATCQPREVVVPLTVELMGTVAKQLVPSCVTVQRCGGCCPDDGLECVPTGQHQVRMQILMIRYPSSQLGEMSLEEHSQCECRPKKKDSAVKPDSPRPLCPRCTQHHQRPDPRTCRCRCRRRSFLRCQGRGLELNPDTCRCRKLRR

B1: hVEGF displayed on phage (hVEGF1-109, wild type) (ligand, human, UniProt P15692 207-315, looked up)
chain: APMAEGGGQNHHEVVKFMDVYQRSYCHPIETLVDIFQEYPDEIEYIFKPSCVPLMRCGGCCNDEGLECVPTEESNITMQIMRIKPHQGQHIGEMSFLQHNKCECRPKKD
notes: Phage fusion partner not described; also called hVEGF displaying phage; hVEGF-phage
B2: murine VEGF (mVEGF) (ligand, mouse, UniProt Q00731-2 27-190, looked up)
chain: APTTEGEQKSHEVIKFMDVYQRSYCRPIETLVDIFQEYPDEIEYIFKPSCVPLMRCAGCCNDEALECVPTSESNITMQIMRIKPHQSQHIGEMSFLQHSRCECRPKKDRTKPENHCEPCSERRKHLFVQDPQTCKCSCKNTDSRCKARQLELNERTCRCDKPRR
notes: also called mouse VEGF
B3: G6 Fab (Fab, V domains shown)
VH: EVQLVESGGGLVQPGGSLRLSCAASGFTISDYWIHWVRQAPGKGLEWVAGITPAGGYTYYADSVKGRFTISADTSKNTAYLQMNSLRAEDTAVYYCARFVFFLPYAMDYWGQGTLVTVSS
VL: DIQMTQSPSSLSASVGDRVTITCRASQDVSTAVAWYQQKPGKAPKLLIYSASFLYSGVPSRFSGSGSGTDFTLTISSLQPEDFATYYCQQSYTTPPTFGQGTKVEIKR
notes: Purified Fab from E. coli in most assays; also called Fab G6; FabG6
B4: second domain of Flt-1 (Flt-1D2) (receptor, UniProt P17948 129-229, looked up)
chain: SDTGRPFVEMYSEIPEIIHMTEGRELVIPCRVTSPNITVTLKKFPLDTLIPDGKRIIWDSRKGFIISNATYKEIGLLTCEATVNGHLYKTNYLTHRQTNTI
notes: domain: second domain of Flt-1 (Flt-1D2)

Key:
murine VEGF (mVEGF) [1] = target: B2; experiment: BIAcore or solution binding ELISA, Fab
[2] = target: T5, Flt-1 ECD fragment (Ig domain1-5) (Flt-1D1-5) (UniProt P17948 27-553, limits assumed); experiment: phage ELISA with wild type hVEGF phage
T5 construct: domain: Flt-1 ECD fragment (Ig domain1-5); also called Flt-1 receptor

[3] = target: T6, full extracellular domain (ECD) of KDR (UniProt P35968 20-764, limits assumed); experiment: phage-blocking assay: receptor fragment at increasing concentration competes with phage clones for mVEGF-coated wells
T6 construct: extracellular domain; also called KDR ECD

murine VEGF-D (mVEGF-D) = target: T1, murine VEGF-D (mVEGF-D); experiment: direct ELISA on coated homolog (2 ug/ml) with increasing G6 Fab
[4] = target: T2, human placenta growth factor (PlGF-2); experiment: as above
[5] = target: T3, mouse placenta growth factor (PlGF-2); experiment: as above
human VEGF-B = target: T4, human VEGF-B; experiment: as above
murine VEGF (mVEGF) [6] = target: B2; experiment: phage-blocking assay: receptor fragment at increasing concentration competes with phage clones for mVEGF-coated wells

T5 sequence (P17948 27-553 limits assumed): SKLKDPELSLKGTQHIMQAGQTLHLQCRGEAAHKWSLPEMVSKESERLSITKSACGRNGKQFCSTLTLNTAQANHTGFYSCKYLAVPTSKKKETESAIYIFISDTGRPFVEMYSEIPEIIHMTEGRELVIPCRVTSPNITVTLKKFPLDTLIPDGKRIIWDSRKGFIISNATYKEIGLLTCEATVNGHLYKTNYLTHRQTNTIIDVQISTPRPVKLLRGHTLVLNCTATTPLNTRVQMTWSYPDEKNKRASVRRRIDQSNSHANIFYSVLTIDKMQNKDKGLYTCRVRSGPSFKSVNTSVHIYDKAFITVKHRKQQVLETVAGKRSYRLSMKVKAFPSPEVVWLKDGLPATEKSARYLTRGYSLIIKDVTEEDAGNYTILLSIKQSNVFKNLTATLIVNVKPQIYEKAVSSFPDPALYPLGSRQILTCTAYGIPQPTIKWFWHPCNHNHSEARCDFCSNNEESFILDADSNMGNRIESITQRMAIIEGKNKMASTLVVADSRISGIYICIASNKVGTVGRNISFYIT
T6 sequence (P35968 20-764 limits assumed): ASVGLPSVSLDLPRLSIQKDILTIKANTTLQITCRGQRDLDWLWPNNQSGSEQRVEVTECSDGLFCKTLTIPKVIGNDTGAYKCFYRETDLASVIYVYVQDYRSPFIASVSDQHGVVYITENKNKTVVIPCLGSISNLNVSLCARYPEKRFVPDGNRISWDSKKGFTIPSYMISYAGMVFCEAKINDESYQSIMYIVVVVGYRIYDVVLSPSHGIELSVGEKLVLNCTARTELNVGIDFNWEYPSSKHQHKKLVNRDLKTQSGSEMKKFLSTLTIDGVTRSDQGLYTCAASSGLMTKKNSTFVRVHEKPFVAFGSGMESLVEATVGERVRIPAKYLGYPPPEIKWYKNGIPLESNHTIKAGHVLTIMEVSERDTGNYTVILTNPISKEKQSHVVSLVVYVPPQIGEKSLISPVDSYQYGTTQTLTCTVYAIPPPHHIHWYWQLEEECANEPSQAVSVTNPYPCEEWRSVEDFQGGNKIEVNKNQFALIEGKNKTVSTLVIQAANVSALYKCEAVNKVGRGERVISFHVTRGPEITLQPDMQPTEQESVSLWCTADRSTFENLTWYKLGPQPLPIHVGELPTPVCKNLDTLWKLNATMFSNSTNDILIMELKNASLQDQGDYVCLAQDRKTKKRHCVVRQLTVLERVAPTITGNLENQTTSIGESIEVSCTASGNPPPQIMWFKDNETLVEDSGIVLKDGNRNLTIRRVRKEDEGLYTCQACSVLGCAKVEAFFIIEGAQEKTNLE

Y0317 Fab
affinity (murine VEGF (mVEGF) [1]): 350 nM

B1
binding result [2]: binds

B2
binding result [3]: binds

B3
binding result (murine VEGF-D (mVEGF-D)): no binding | binding result [4]: no binding | binding result [5]: no binding | binding result (human VEGF-B): no binding

B4
binding result (murine VEGF (mVEGF) [6]): binds
